Biological target: the molecule itself
Assay: cross-linking; 50 µM purified PcrP with 0.02, 0.05, 0.1 and 0.2% glutaraldehyde, 2 min, 20 mM HEPES pH 7.8, 50 mM NaCl, 1% glycerol; stopped with Tris-HCl; 12% SDS-PAGE, Coomassie

B1: 6xHis-PcrP (PA2803), recombinant, purified from E. coli (natural protein)
chain: MPSSDQLPRFTALLFGLSGGLVDFGARTLSLALLRSHPHSPAEHLRDASLLPFAEAQSFLLRRKPNKSERQRLEQALDEAAGEQAEAIAGAVALLESLDEQRIPYAWQDELPESVCQRLAAPLGRANALIPLAGARPWPAPDGCWQALARLGIERLDGCVLVSAQPRQLQAGLNAGLWTIGLAASGPSCGLSPADWDALGHTERDRLRADATLELYRLGVHSVIDHLGELQPCLHDLAVRRLKGEKP
notes: PcrP (PA2803), Pseudomonas aeruginosa PAO1; cloned NdeI/EcoRI into pSKB3; No removal of the His tag is described; also called 6XHis-PA2803; pAAK001 construct; source: E. coli BL21(DE3), purified (Ni-NTA)
stoichiometry N: 2
